# Measurements taken from US20250277023A1 (published 2025).
# Assays:
# [1] = biological target: T1, PD-L1 (on CHO-PD-L1 cells) (UniProt Q9NZQ7 19-290); assay: FACS binding; Fig. 23
# IL15R = assay: FACS binding; Fig. 29
# [2] = biological target: T1, PD-L1 (on CHO-PD-L1 cells); assay: FACS binding; Fig. 21
# T1 sequence (Q9NZQ7 19-290): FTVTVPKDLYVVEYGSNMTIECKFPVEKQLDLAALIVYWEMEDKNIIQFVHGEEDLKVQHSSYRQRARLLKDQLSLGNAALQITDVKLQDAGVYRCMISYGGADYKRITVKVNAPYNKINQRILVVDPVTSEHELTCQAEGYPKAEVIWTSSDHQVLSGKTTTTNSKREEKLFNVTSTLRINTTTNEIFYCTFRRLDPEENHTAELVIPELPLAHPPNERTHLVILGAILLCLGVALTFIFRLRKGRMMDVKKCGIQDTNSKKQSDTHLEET
Binder,EC50 [1] [nM],EC50 (IL15R) [nM],EC50 [2] [nM]
R1042 (bispecific antibody) chain 1: EVQLLESGGGLVQPGGSLRLSCAASGFTFSSYIMMWVRQAPGKGLEWVSSIYPSGGITFYADTVKGRFTISRDNSKNTLYLQMNSLRAEDTAVYYCARIKLGTVTTVDYWGQGTLVTVSSGGGGSGGGGSGGGGSGGGGSGITCPPPMSVEHADIWVKSYSLYSRERYICNSGFKRKAGTSSLTECVLNKATNVAHWTTPSLKCIRDPALVHQRPAPPSTVTTAGVTPQPESLSPSGKEPAASSPSSNNTAATTAAIVPGSQLMPSKSPSTGTTEISSHESSHGTPSQTTAKNWELTASASHQPPGVYPQGHSDTTEPRGPTIKPCPPCKCPAPNLLGGPSVFIFPPKIKDVLMISLSPIVTCVVVDVSEDDPDVQISWFVNNVEVHTAQTQTHREDYNSTLRVVSALPIQHQDWMSGKEFKCKVNNKDLPAPIERTISKPKGSVRAPQVYVLPPPEEEMTKKQVTLWCMVTDFMPEDIYVEWTNNGKTELNYDNTEPVLDSDGSYFMYSDLRVEKKNWVERNSYSCSVVHEGLHNHHTTKSFSRTPGK chain 2: not shown heavy: QVQLESEGGLFKPTDTLTLTCTVSGSSLSSSYMSWVRQAPGKGLEWIGIIGSNGNTYYANWAKGRFTISKTSTTVELKITSPTTEDTATYFCARGGYRTSGMDPWGPGTLVTVSSAKTTAPSVYPLAPVCGDTTGSSVTLGCLVKGYFPEPVTLTWNSGSLSSGVHTFPAVLQSDLYTLSSSVTVTSSTWPSQSITCNVAHPASSTKVDKKIEPRGPTIKPCPPCKCPAPNLLGGPSVFIFPPKIKDVLMISLSPIVTCVVVDVSEDDPDVQISWFVNNVEVHTAQTQTHREDYNSTLRVVSALPIQHQDWMSGKEFKCKVNNKDLPAPIERTISKPKGSVRAPQVYVLPPPEEEMTKKQVTLTCRVTDFMPEDIYVEWTNNGKTELNYKNTEPVLKSDGSYFMASKLRVEKKNWVERNSYSCSVVHEGLHNHHTTKSFSRTPGK light: QSALTQPASVSGSPGQSITISCTGTSSDVGGYNYVSWYQQHPGKAPKLMIYDVSNRPSGVSNRFSGSKSGNTASLTISGLQAEDEADYYCSSYTSSSTRVFGTGTKVTVLRTDAAPTVSIFPPSSEQLTSGGASVVCFLNNFYPKDINVKWKIDGSERQNGVLNSWTDQDSKDSTYSMSSTLTLTKDEYERHNSYTCEATHKTSTSPIVKSFNRNEC,–,0.862,–
R0950: PD-L1_VH_IL15RA/PD-L1_VL_IL15/TIGIT-Fab (bispecific antibody) chain 1: EVQLLESGGGLVQPGGSLRLSCAASGFTFSSYIMMWVRQAPGKGLEWVSSIYPSGGITFYADTVKGRFTISRDNSKNTLYLQMNSLRAEDTAVYYCARIKLGTVTTVDYWGQGTLVTVSSGGGGSGGGGSGGGGSGGGGSGITCPPPMSVEHADIWVKSYSLYSRERYICNSGFKRKAGTSSLTECVLNKATNVAHWTTPSLKCIRDPALVHQRPAPPSTVTTAGVTPQPESLSPSGKEPAASSPSSNNTAATTAAIVPGSQLMPSKSPSTGTTEISSHESSHGTPSQTTAKNWELTASASHQPPGVYPQGHSDTTEPRGPTIKPCPPCKCPAPNLLGGPSVFIFPPKIKDVLMISLSPIVTCVVVDVSEDDPDVQISWFVNNVEVHTAQTQTHREDYNSTLRVVSALPIQHQDWMSGKEFKCKVNNKDLPAPIERTISKPKGSVRAPQVYVLPPPEEEMTKKQVTLWCMVTDFMPEDIYVEWTNNGKTELNYDNTEPVLDSDGSYFMYSDLRVEKKNWVERNSYSCSVVHEGLHNHHTTKSFSRTPGK chain 2: not shown heavy: QVQLESEGGLFKPTDTLTLTCTVSGSSLSSSYMSWVRQAPGKGLEWIGIIGSNGNTYYANWAKGRFTISKTSTTVELKITSPTTEDTATYFCARGGYRTSGMDPWGPGTLVTVSSAKTTAPSVYPLAPVCGDTTGSSVTLGCLVKGYFPEPVTLTWNSGSLSSGVHTFPAVLQSDLYTLSSSVTVTSSTWPSQSITCNVAHPASSTKVDKKIEPRGPTIKPCPPCKCPAPNLLGGPSVFIFPPKIKDVLMISLSPIVTCVVVDVSEDDPDVQISWFVNNVEVHTAQTQTHREDYNSTLRVVSALPIQHQDWMSGKEFKCKVNNKDLPAPIERTISKPKGSVRAPQVYVLPPPEEEMTKKQVTLTCRVTDFMPEDIYVEWTNNGKTELNYKNTEPVLKSDGSYFMASKLRVEKKNWVERNSYSCSVVHEGLHNHHTTKSFSRTPGK light: DIVMTQTPASVEVAVGGTVTIKCQASQSISSYLNWYQQKPGQPPKLLIYDALKLASGVPSRFSGSGSGTEYTLTISGVESADAATYYCQQEHSVGNVDNVFGGGTEVVVKRTDAAPTVSIFPPSSEQLTSGGASVVCFLNNFYPKDINVKWKIDGSERQNGVLNSWTDQDSKDSTYSMSSTLTLTKDEYERHNSYTCEATHKTSTSPIVKSFNRNEC,0.903,–,0.571

# More lines, now with the values ahead:
EC50 [1] [nM],EC50 (IL15R) [nM],EC50 [2] [nM],Binder
7.29,–,–,R1042: PD-L1_VH_IL15RA/TIGIT_VL_IL15/TIGIT_VH/PD-L1-VL (bispecific antibody) chain 1: EVQLLESGGGLVQPGGSLRLSCAASGFTFSSYIMMWVRQAPGKGLEWVSSIYPSGGITFYADTVKGRFTISRDNSKNTLYLQMNSLRAEDTAVYYCARIKLGTVTTVDYWGQGTLVTVSSGGGGSGGGGSGGGGSGGGGSGITCPPPMSVEHADIWVKSYSLYSRERYICNSGFKRKAGTSSLTECVLNKATNVAHWTTPSLKCIRDPALVHQRPAPPSTVTTAGVTPQPESLSPSGKEPAASSPSSNNTAATTAAIVPGSQLMPSKSPSTGTTEISSHESSHGTPSQTTAKNWELTASASHQPPGVYPQGHSDTTEPRGPTIKPCPPCKCPAPNLLGGPSVFIFPPKIKDVLMISLSPIVTCVVVDVSEDDPDVQISWFVNNVEVHTAQTQTHREDYNSTLRVVSALPIQHQDWMSGKEFKCKVNNKDLPAPIERTISKPKGSVRAPQVYVLPPPEEEMTKKQVTLWCMVTDFMPEDIYVEWTNNGKTELNYDNTEPVLDSDGSYFMYSDLRVEKKNWVERNSYSCSVVHEGLHNHHTTKSFSRTPGK chain 2: not shown heavy: QVQLESEGGLFKPTDTLTLTCTVSGSSLSSSYMSWVRQAPGKGLEWIGIIGSNGNTYYANWAKGRFTISKTSTTVELKITSPTTEDTATYFCARGGYRTSGMDPWGPGTLVTVSSAKTTAPSVYPLAPVCGDTTGSSVTLGCLVKGYFPEPVTLTWNSGSLSSGVHTFPAVLQSDLYTLSSSVTVTSSTWPSQSITCNVAHPASSTKVDKKIEPRGPTIKPCPPCKCPAPNLLGGPSVFIFPPKIKDVLMISLSPIVTCVVVDVSEDDPDVQISWFVNNVEVHTAQTQTHREDYNSTLRVVSALPIQHQDWMSGKEFKCKVNNKDLPAPIERTISKPKGSVRAPQVYVLPPPEEEMTKKQVTLTCRVTDFMPEDIYVEWTNNGKTELNYKNTEPVLKSDGSYFMASKLRVEKKNWVERNSYSCSVVHEGLHNHHTTKSFSRTPGK light: QSALTQPASVSGSPGQSITISCTGTSSDVGGYNYVSWYQQHPGKAPKLMIYDVSNRPSGVSNRFSGSKSGNTASLTISGLQAEDEADYYCSSYTSSSTRVFGTGTKVTVLRTDAAPTVSIFPPSSEQLTSGGASVVCFLNNFYPKDINVKWKIDGSERQNGVLNSWTDQDSKDSTYSMSSTLTLTKDEYERHNSYTCEATHKTSTSPIVKSFNRNEC
–,1.07,–,R1043 (bispecific antibody) chain 1: QVQLESEGGLFKPTDTLTLTCTVSGSSLSSSYMSWVRQAPGKGLEWIGIIGSNGNTYYANWAKGRFTISKTSTTVELKITSPTTEDTATYFCARGGYRTSGMDPWGPGTLVTVSSGGGGSGGGGSGGGGSGGGGSGITCPPPMSVEHADIWVKSYSLYSRERYICNSGFKRKAGTSSLTECVLNKATNVAHWTTPSLKCIRDPALVHQRPAPPSTVTTAGVTPQPESLSPSGKEPAASSPSSNNTAATTAAIVPGSQLMPSKSPSTGTTEISSHESSHGTPSQTTAKNWELTASASHQPPGVYPQGHSDTTEPRGPTIKPCPPCKCPAPNLLGGPSVFIFPPKIKDVLMISLSPIVTCVVVDVSEDDPDVQISWFVNNVEVHTAQTQTHREDYNSTLRVVSALPIQHQDWMSGKEFKCKVNNKDLPAPIERTISKPKGSVRAPQVYVLPPPEEEMTKKQVTLWCMVTDFMPEDIYVEWTNNGKTELNYDNTEPVLDSDGSYFMYSDLRVEKKNWVERNSYSCSVVHEGLHNHHTTKSFSRTPGK chain 2: not shown heavy: EVQLLESGGGLVQPGGSLRLSCAASGFTFSSYIMMWVRQAPGKGLEWVSSIYPSGGITFYADTVKGRFTISRDNSKNTLYLQMNSLRAEDTAVYYCARIKLGTVTTVDYWGQGTLVTVSSAKTTAPSVYPLAPVCGDTTGSSVTLGCLVKGYFPEPVTLTWNSGSLSSGVHTFPAVLQSDLYTLSSSVTVTSSTWPSQSITCNVAHPASSTKVDKKIEPRGPTIKPCPPCKCPAPNLLGGPSVFIFPPKIKDVLMISLSPIVTCVVVDVSEDDPDVQISWFVNNVEVHTAQTQTHREDYNSTLRVVSALPIQHQDWMSGKEFKCKVNNKDLPAPIERTISKPKGSVRAPQVYVLPPPEEEMTKKQVTLTCRVTDFMPEDIYVEWTNNGKTELNYKNTEPVLKSDGSYFMASKLRVEKKNWVERNSYSCSVVHEGLHNHHTTKSFSRTPGK light: DIVMTQTPASVEVAVGGTVTIKCQASQSISSYLNWYQQKPGQPPKLLIYDALKLASGVPSRFSGSGSGTEYTLTISGVESADAATYYCQQEHSVGNVDNVFGGGTEVVVKRTDAAPTVSIFPPSSEQLTSGGASVVCFLNNFYPKDINVKWKIDGSERQNGVLNSWTDQDSKDSTYSMSSTLTLTKDEYERHNSYTCEATHKTSTSPIVKSFNRNEC
